What all share (assay): SPR, captured His-receptor
For orientation: Surface plasmon resonance follows binding to a sensor surface in real time, without labels.

In assay [1] the target is T1, human FcγRIIIB (NA2 allotype, Sino Biological Cat. No. 11046-H08H) (human, UniProt O75015 17-200).
T1 construct: bought; also called human FcγRIIIb NA2 allele

Assay [2] deals with T2, human FcγRIIA (R131, Sino Biological Cat. No. 10374-H08H) (human, UniProt P12318 34-218).
T2 construct: bought; also called human FcγRIIa R131 allele; FcγRII allele R131
T2 sequence (looked up): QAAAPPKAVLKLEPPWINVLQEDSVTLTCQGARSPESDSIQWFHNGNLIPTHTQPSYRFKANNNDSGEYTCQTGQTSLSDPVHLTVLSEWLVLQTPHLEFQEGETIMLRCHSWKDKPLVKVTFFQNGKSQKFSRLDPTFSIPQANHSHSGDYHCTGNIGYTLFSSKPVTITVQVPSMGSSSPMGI

The target in assay [3] is T3, Histidine-tagged recombinant human FcγRI (CD64) (human, UniProt P12314 16-288).
T3 construct: bought; also called Sino Biological Cat. No. 12056-H08H

Changes are numbered by the printed parent chain. Numbers in names are those of the source.

We go through 6 molecules from patent publication US20230235013A1 (MABSOLVE, published 2023).

B1: anti-CD20 rabbit IgG L234Q/L235S/G236R (antibody)
heavy: QVQLQQPGAELVKPGASVKMSCKASGYTFTSYNMHWVKQTPGRGLEWIGAIYPGNGDTSYNQKFKGKATLTADKSSSTAYMQLSSLTSEDSAVYYCARSTYYGGDWYFNVWGAGTTVTVSSGQPKAPSVFPLAPCCGDTPSSTVTLGCLVKGYLPEPVTVTWNSGTLTNGVRTFPSVRQSSGLYSLSSVVSVTSSSQPVTCNVAHPATNTKVDKTVAPSTCSKPTCPPPEQSRGPSVFIFPPKPKDTLMISRTPEVTCVVVDVSEDDPEVQFTWYINNEQVRTARPPLREQQFNSTIRVVSTLPIAHEDWLRGKEFKCKVHNKALPAPIEKTISKARGQPLEPKVYTMGPPREELSSRSVSLTCMINGFYPSDISVEWEKNGKAEDNYKTTPAVLDSDGSYFLYSKLSVPTSEWQRGDVFTCSVMHEALHNHYTQKSISRSPGK
light: QIVLSQSPAILSASPGEKVTMTCRASSSVSYIHWFQQKPGSSPKPWIYATSNLASGVPVRFSGSGSGTSYSLTISRVEAEDAATYYCQQWTSNPPTFGGGTKLEIKRDPVAPSVLLFPPSKEELTTGTATIVCVANKFYPSDITVTWKVDGTTQQSGIENSKTPQSPEDNTYSLSSTLSLTSAQYNSHSVYTCEVVQGSASPIVQSFNRGDC
notes: also called 23.77
Take B1: the binding result in assay [1], in assay [2] and in assay [3] was “no binding (tested: 100 µg/mL)” each time.

B2: anti-CD20 human IgG1 L234S/L235V/G236R (antibody)
heavy: QVQLQQPGAELVKPGASVKMSCKASGYTFTSYNMHWVKQTPGRGLEWIGAIYPGNGDTSYNQKFKGKATLTADKSSSTAYMQLSSLTSEDSAVYYCARSTYYGGDWYFNVWGAGTTVTVSSASTKGPSVFPLAPSSKSTSGGTAALGCLVKDYFPEPVTVSWNSGALTSGVHTFPAVLQSSGLYSLSSVVTVPSSSLGTQTYICNVNHKPSNTKVDKKVEPKSCDKTHTCPPCPAPESVRGPSVFLFPPKPKDTLMISRTPEVTCVVVDVSHEDPEVKFNWYVDGVEVHNAKTKPREEQYNSTYRVVSVLTVLHQDWLNGKEYKCKVSNKALPAPIEKTISKAKGQPREPQVYTLPPSRDELTKNQVSLTCLVKGFYPSDIAVEWESNGQPENNYKTTPPVLDSDGSFFLYSKLTVDKSRWQQGNVFSCSVMHEALHNHYTQKSLSLSPGK
light: QIVLSQSPAILSASPGEKVTMTCRASSSVSYIHWFQQKPGSSPKPWIYATSNLASGVPVRFSGSGSGTSYSLTISRVEAEDAATYYCQQWTSNPPTFGGGTKLEIKRTVAAPSVFIFPPSDEQLKSGTASVVCLLNNFYPREAKVQWKVDNALQSGNSQESVTEQDSKDSTYSLSSTLTLSKADYEKHKVYACEVTHQGLSSPVTKSFNRGEC
notes: also called 2-53; copies: 2 + 2
For the molecule B2, the binding result in assay [1], in assay [2] and in assay [3] was “no binding (tested: 100 µg/mL)” each time.

B3: anti-CD20 human IgG4 L234Q/L235S/G236R (with S228P) (antibody)
heavy: QVQLQQPGAELVKPGASVKMSCKASGYTFTSYNMHWVKQTPGRGLEWIGAIYPGNGDTSYNQKFKGKATLTADKSSSTAYMQLSSLTSEDSAVYYCARSTYYGGDWYFNVWGAGTTVTVSSASTKGPSVFPLAPCSRSTSESTAALGCLVKDYFPEPVTVSWNSGALTSGVHTFPAVLQSSGLYSLSSVVTVPSSSLGTKTYTCNVDHKPSNTKVDKRVESKYGPPCPPCPAPEQSRGPSVFLFPPKPKDTLMISRTPEVTCVVVDVSQEDPEVQFNWYVDGVEVHNAKTKPREEQFNSTYRVVSVLTVLHQDWLNGKEYKCKVSNKGLPSSIEKTISKAKGQPREPQVYTLPPSQEEMTKNQVSLTCLVKGFYPSDIAVEWESNGQPENNYKTTPPVLDSDGSFFLYSRLTVDKSRWQEGNVFSCSVMHEALHNHYTQKSLSLSLGK
light: B2 light
notes: copies: 2 + 2
Turning to B3, the binding result in assay [1], in assay [2] and in assay [3] was “no binding (tested: 100 µg/mL)” in each case.

B4: anti-CD20 human IgG1 L234T/L235T/G236R (antibody)
heavy: B2 heavy with S238T, V239T
light: B2 light
notes: also called 1-165; 2-63; copies: 2 + 2
As to B4, the binding result in assay [1], in assay [2] and in assay [3] was “no binding (tested: 100 µg/mL)” each time.

B5: anti-CD20 human IgG2 L234Q/L235S (antibody)
heavy: QVQLQQPGAELVKPGASVKMSCKASGYTFTSYNMHWVKQTPGRGLEWIGAIYPGNGDTSYNQKFKGKATLTADKSSSTAYMQLSSLTSEDSAVYYCARSTYYGGDWYFNVWGAGTTVTVSSASTKGPSVFPLAPCSRSTSESTAALGCLVKDYFPEPVTVSWNSGALTSGVHTFPAVLQSSGLYSLSSVVTVPSSNFGTQTYTCNVDHKPSNTKVDKTVERKCCVECPPCPAPPQSGPSVFLFPPKPKDTLMISRTPEVTCVVVDVSHEDPEVQFNWYVDGVEVHNAKTKPREEQFNSTFRVVSVLTVVHQDWLNGKEYKCKVSNKGLPAPIEKTISKTKGQPREPQVYTLPPSREEMTKNQVSLTCLVKGFYPSDIAVEWESNGQPENNYKTTPPMLDSDGSFFLYSKLTVDKSRWQQGNVFSCSVMHEALHNHYTQKSLSLSPGK
light: B2 light
notes: also called 11.144; copies: 2 + 2
Take B5: the binding result in assay [1] was “no binding (tested: 100 µg/mL)”; in assay [2], “no binding (tested: 100 µg/mL)”; in assay [3], “binds”.

B6: anti-CD20 mouse IgG2a L234Q/L235S/G236R (antibody)
heavy: QVQLQQPGAELVKPGASVKMSCKASGYTFTSYNMHWVKQTPGRGLEWIGAIYPGNGDTSYNQKFKGKATLTADKSSSTAYMQLSSLTSEDSAVYYCARSTYYGGDWYFNVWGAGTTVTVSSAKTTAPSVYPLAPVCGDTTGSSVTLGCLVKGYFPEPVTLTWNSGSLSSGVHTFPAVLQSDLYTLSSSVTVTSSTWPSQSITCNVAHPASSTKVDKKIEPRGPTIKPCPPCKCPAPNQSRGPSVFIFPPKIKDVLMISLSPIVTCVVVDVSEDDPDVQISWFVNNVEVHTAQTQTHREDYNSTLRVVSALPIQHQDWMSGKEFKCKVNNKDLPAPIERTISKPKGSVRAPQVYVLPPPEEEMTKKQVTLTCMVTDFMPEDIYVEWTNNGKTELNYKNTEPVLDSDGSYFMYSKLRVEKKNWVERNSYSCSVVHEGLHNHHTTKSFSRTPGK
light: QIVLSQSPAILSASPGEKVTMTCRASSSVSYIHWFQQKPGSSPKPWIYATSNLASGVPVRFSGSGSGTSYSLTISRVEAEDAATYYCQQWTSNPPTFGGGTKLEIKRADAAPTVSIFPPSSEQLTSGGASVVCFLNNFYPKDINVKWKIDGSERQNGVLNSWTDQDSKDSTYSMSSTLTLTKDEYERHNSYTCEATHKTSTSPIVKSFNRNEC
notes: copies: 2 + 2
Consider B6, for which the binding result in assay [1], in assay [2] and in assay [3] was “no binding (tested: 100 µg/mL)” in each case.
